# From PMC11964265, “Eating the brain - A multidisciplinary study provides new insights into the mechanisms underlying the cytopathogenicity of Naegleria fowleri” (PLOS Pathogens, 2025)
# B1: Naegleria fowleri lysozyme (recombinant) (natural protein)
# chain: MSSYYTKEQFFRALHQVESKGQLNPPDGDKGRAIGPLQIWEVYWKDSGIQESYQSVRKFEIAKKCVNRFMKRYAENEWGPTMTIDQVEKCARIHNGGPRGHLKPETDDYWERFKEALENLDDEEVVVVEENDNNDDDQDDNEEESKDHRELLKIGMSGADVEEIQQQLADLGYDLGSYGADGKFGKATQQAVMKFQQDHDLAVDGIVGKETRKALNLEKGEDDQEQQEVADDQQEDDDEQQQQQNKDQPQEQDEEETTNEVKEEEQNDDEHEDPQEEEEQQQEDEQEDPQEEQQEDEDQQEDNDEENDQQQEDDDDQEQQQEEEEQEDPQEEEEQQNDDDDQQDDMEEQQDGDDDNDDDDA
# notes: Cloned into pET42b with NdeI/XhoI sites in the primers; Pentamer by analytical SEC only; also called Nf lysozyme; source: E. coli BL21(DE3), purified (Ni-NTA agarose, native conditions)
# Target: the molecule itself
# Experiment: SEC; analytical size-exclusion chromatography, Superdex 200 Increase 10/300 GL, 20 mM Tris-HCl, 150 mM NaCl, pH 7.5; mass from calibration with Gel Filtration Standard (Bio-Rad)
protein,measurement,value
B1,stoichiometry N,5
